Laboratory results: article PMC6308234 (Scientific Reports, 2018)
Positions count from the first letter of the chain named.

T1: DENV-2 nonstructural protein 1 (NS1), recombinant (dengue virus serotype 2 (DENV-2))
T1 chain: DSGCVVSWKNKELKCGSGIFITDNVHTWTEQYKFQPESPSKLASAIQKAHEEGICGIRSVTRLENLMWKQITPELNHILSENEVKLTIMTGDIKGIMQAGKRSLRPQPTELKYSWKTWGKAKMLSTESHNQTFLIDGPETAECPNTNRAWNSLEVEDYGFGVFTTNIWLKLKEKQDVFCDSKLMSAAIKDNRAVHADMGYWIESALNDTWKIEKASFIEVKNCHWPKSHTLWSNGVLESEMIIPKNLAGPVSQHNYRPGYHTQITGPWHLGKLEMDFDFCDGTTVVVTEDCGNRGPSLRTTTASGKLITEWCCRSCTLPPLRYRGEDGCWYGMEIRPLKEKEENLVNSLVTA

T2: DENV-4 nonstructural protein 1 (NS1), recombinant (dengue virus serotype 4 (DENV-4))
T2 chain: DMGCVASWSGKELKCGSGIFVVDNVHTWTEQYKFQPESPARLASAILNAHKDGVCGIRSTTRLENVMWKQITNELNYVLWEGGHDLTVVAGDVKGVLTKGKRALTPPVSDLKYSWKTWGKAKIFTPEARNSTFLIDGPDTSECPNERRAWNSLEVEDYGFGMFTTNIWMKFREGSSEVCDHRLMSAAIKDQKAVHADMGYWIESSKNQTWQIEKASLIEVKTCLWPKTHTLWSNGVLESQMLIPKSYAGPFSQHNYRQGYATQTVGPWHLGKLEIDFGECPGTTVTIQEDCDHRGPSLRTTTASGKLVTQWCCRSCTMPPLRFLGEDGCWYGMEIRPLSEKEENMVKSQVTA

T3: DENV-3 nonstructural protein 1 (NS1), recombinant (dengue virus serotype 3 (DENV-3))
T3 chain: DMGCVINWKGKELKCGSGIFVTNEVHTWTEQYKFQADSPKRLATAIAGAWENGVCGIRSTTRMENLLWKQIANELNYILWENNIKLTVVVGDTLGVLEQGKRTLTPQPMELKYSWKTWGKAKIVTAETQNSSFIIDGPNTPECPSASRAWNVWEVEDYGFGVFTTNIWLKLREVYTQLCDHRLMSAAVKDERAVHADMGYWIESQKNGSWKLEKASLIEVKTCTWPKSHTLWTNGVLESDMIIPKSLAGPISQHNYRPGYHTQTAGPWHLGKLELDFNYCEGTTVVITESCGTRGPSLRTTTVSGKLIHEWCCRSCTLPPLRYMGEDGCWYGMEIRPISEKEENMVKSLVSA

T4: DENV-1 nonstructural protein 1 (NS1), recombinant (dengue virus serotype 1 (DENV-1))
T4 chain: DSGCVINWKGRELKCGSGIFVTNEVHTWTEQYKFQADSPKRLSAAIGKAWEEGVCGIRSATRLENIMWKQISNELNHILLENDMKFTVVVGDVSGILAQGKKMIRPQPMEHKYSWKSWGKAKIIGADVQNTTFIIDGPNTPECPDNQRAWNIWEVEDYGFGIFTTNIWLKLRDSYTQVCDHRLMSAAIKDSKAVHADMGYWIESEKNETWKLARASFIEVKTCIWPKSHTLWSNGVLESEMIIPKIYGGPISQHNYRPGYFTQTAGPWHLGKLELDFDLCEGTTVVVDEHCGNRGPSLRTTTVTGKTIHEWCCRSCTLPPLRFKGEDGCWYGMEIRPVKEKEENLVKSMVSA

B1: sdAb DC7 (VHH)
VHH: EVQLQASGGGSVQAGGSLRLSCAHSSITVPDYTIGWYRRAPGKGGEEVSLISMHGGRTWYAGSVKGRFAISRDSVKNTVYLQMNNLKPEDTDIYYCGGTTFGLAAAPNEYDSWGQGSQVTVSS
notes: source: E. coli Turner (DE3), pET22b, periplasmic, purified (Ni-Sepharose, SEC)
B2: sdAb DD9 (VHH)
VHH: EVQLQASGGGLVQAGGSLRVSCAASGIAFTNYALAWYRQPPGKQREWVATVGVLGGTKYADSVKGRFAISRDNAKNTVILQMNSLKPVDTAVYFCAAVEWSNGRYYWDSWGQGTQVTVSA
notes: as for B1
B3: sdAb DD5 (VHH)
VHH: EVQLQASGGGLVQAGGSLRLSCAASGRAFSSETMGWFRQAPGKEREFVAAIWRIGGSTYNTDYADSVKGRFAISADRAKNTVDLQMNTLKPEDTAVYYCAGKMRGRSVNLYDYDYWGQGTQVTVSS
notes: as for B1
B4: sdAb DC4 (VHH)
VHH: EVQLQASGGGLVQAGGSLRLSCAASERTFSHYFVGWFRQAPGKEREFVARITWSGSNVEYEDAVKDRFTLSSDNAKNTVYLHMNSLKPEDTAVYYCAAANTIWTPTIRDYNVWGQGTQVTVSS
notes: as for B1
B5: sdAb DH12 (VHH)
VHH: EVQLVESGGGSVQAGGSLRLSCAASERTFSYYFMGWFRQAPGKEREWVARIRWNGDGADYTDAVKDRFTISSDHAKNTVYLQMNSLKPEDTAVYYCAAANSIWKPTTRDYNYWGQGTQVSVSS
notes: as for B1
B6: sdAb DD1 (VHH)
VHH: EVQLQASGGGLVQAGGSLRVSCAATGIAFASYAVAWYRQAPGKQREWVATVGGLGGTKYVDSVKGRFTISRDNAKNAVTLQMNSLKPEDTAVYYCAAVEWDDGHYYWDTWGQGTRVTVSA
notes: as for B1
B7: sdAb DD7 (VHH)
VHH: B1 VHH with Q5V, A6Q, Y37F, T58S
notes: as for B1
B8: sdAb DD6 (VHH)
VHH: B1 VHH
notes: as for B1
B9: sdAb DB5 (VHH)
VHH: DVQLQASGGGLVQDGGSLRLSCAASGLGFRIHSMGWYRQAPGKARDLVAVITDSGQTNYAPSVKGRFTISRESAGNTVYLQMNSLKPDDTAVYYCAVTTWDPHSYWGQGTQVTVSS
notes: as for B1
B10: sdAb DH4 (VHH)
VHH: B6 VHH with E1D, L11V, K64R
notes: as for B1
B11: biotinylated sdAb DB5 (VHH)
VHH: B9 VHH
notes: also called Bt-DB5

Target: T1, DENV-2 nonstructural protein 1 (NS1), …
Test: SPR; sdAb immobilized
Conditions: not given

Work on B1 yielded a Kd of 0.556 nM.

Target: T2, DENV-4 nonstructural protein 1 (NS1), …
Test: SPR; NS1 immobilized
Conditions: not given

Point of comparison: B2, koff 0.00428 s⁻¹. Against it:
- B3 — 2.2-fold lower, 0.00193 s⁻¹
- B4 — within 1.5-fold, 0.00501 s⁻¹
- B5 — within 1.5-fold, 0.00604 s⁻¹

Target: T3, DENV-3 nonstructural protein 1 (NS1), …
Test: SPR; NS1 immobilized
Conditions: not given

Point of comparison: B2, koff 0.000951 s⁻¹. Against it:
- B3 — 3.5-fold lower, 0.000269 s⁻¹
- B4 — 7.8-fold higher, 0.00741 s⁻¹
- B5 — 3.4-fold higher, 0.00323 s⁻¹

Target: T4, DENV-1 nonstructural protein 1 (NS1), …
Test: SPR; NS1 immobilized
Conditions: not given

Point of comparison: B5, koff 0.00658 s⁻¹. Against it:
- B2 — 4.7-fold lower, 0.00141 s⁻¹
- B3 — 17-fold lower, 0.000383 s⁻¹
- B4 — within 1.5-fold, 0.00889 s⁻¹

Target: T1, DENV-2 nonstructural protein 1 (NS1), …
Test: SPR; NS1 immobilized
Conditions: not given

Point of comparison: B3, koff 0.000347 s⁻¹. Against it:
- B2 — 1.6-fold higher, 0.000545 s⁻¹
- B4 — 17-fold higher, 0.00604 s⁻¹
- B5 — 9.6-fold higher, 0.00333 s⁻¹

These binders were tested against T5, DENV-2 nonstructural protein 1 (NS1), recombinant (Dengue virus 2, strain …, UniProt P29990) (assay: SPR). Conditions: both partners purified.
T5 construct: also called DENV-2 NS1; NS1 from DENV-2; source: bought: Native Antigen Company (recombinant)

Point of comparison: B5, Kd 9.8 nM. Against it:
- B2 — within 1.5-fold, 6.7 nM
- B3 — 2.2-fold lower, 4.5 nM
- B1 — 3.8-fold lower, 2.6 nM
- B6 — 1.5-fold higher, 15 nM
- B4 — 4.3-fold higher, 42.1 nM
- B7 — 2.1-fold higher, 20.3 nM
- B8 — 4.9-fold lower, 2 nM
- B10 — within 1.5-fold, 8.5 nM

B9: no binding (tested: typically up to 300 nM).

Each binder was assayed against T6, DENV-1 nonstructural protein 1 (NS1), recombinant (Dengue virus 1, strain Nauru/West …, UniProt P17763) (assay: SPR). Conditions: both partners purified.
T6 construct: also called DENV-1 NS1; NS1 from DENV-1; source: bought: Native Antigen Company (recombinant)

Point of comparison: B1, Kd 9.1 nM. Against it:
- B2 — 2-fold higher, 18 nM
- B3 — 3.2-fold lower, 2.8 nM
- B6 — 3.1-fold higher, 28.5 nM
- B4 — 6.8-fold higher, 62 nM
- B7 — 1.7-fold lower, 5.4 nM
- B5 — 1.6-fold higher, 14.4 nM
- B8 — within 1.5-fold, 7.6 nM
- B10 — within 1.5-fold, 10.3 nM

B9: no binding (tested: typically up to 300 nM).

Each binder was assayed against T7, DENV-4 nonstructural protein 1 (NS1), recombinant (Dengue virus 4, strain …, UniProt P09866) (assay: SPR). Conditions: both partners purified.
T7 construct: also called DENV-4 NS1; NS1 from DENV-4; source: bought: Native Antigen Company (recombinant)

Point of comparison: B4, Kd 43 nM. Against it:
- B2 — within 1.5-fold, 34.8 nM
- B3 — 1.8-fold lower, 24 nM
- B1 — 20-fold lower, 2.2 nM
- B6 — 5.5-fold lower, 7.8 nM
- B7 — 18-fold lower, 2.4 nM
- B5 — 2.1-fold lower, 20.9 nM
- B8 — 17-fold lower, 2.5 nM
- B10 — 5.1-fold lower, 8.5 nM

B9: no binding (tested: typically up to 300 nM).

These binders were tested against T8, DENV-3 nonstructural protein 1 (NS1), recombinant (Dengue virus 3, strain Sri …, UniProt Q6YMS4) (assay: SPR). Conditions: both partners purified.
T8 construct: also called DENV-3 NS1; NS1 from DENV-3; source: bought: Native Antigen Company (recombinant)

Point of comparison: B3, Kd 3.2 nM. Against it:
- B2 — 6.8-fold higher, 21.8 nM
- B1 — 2.7-fold lower, 1.2 nM
- B6 — 27-fold higher, 85.8 nM
- B4 — 9.9-fold higher, 31.6 nM
- B7 — 2.2-fold higher, 7 nM
- B5 — 3.9-fold higher, 12.4 nM
- B8 — 2.9-fold lower, 1.1 nM
- B9 — within 1.5-fold, 4.4 nM
- B10 — 7.4-fold higher, 23.8 nM

Target: T5, DENV-2 nonstructural protein 1 (NS1), …
Test: SPR
Conditions: both partners purified
Remark: another data set of the same source

Point of comparison: B3, Kd 0.9 nM. Against it:
- B2 — 3.9-fold higher, 3.5 nM
- B1 — 1.5-fold lower, 0.6 nM
- B6 — 2.6-fold higher, 2.3 nM
- B7 — 1.7-fold higher, 1.5 nM

Target: T6, DENV-1 nonstructural protein 1 (NS1), …
Test: SPR
Conditions: both partners purified
Remark: another data set of the same source

Point of comparison: B3, Kd 4.2 nM. Against it:
- B2 — 1.6-fold lower, 2.7 nM
- B1 — 5.2-fold lower, 0.8 nM
- B6 — 1.9-fold lower, 2.2 nM
- B7 — 2.5-fold lower, 1.7 nM

Target: T7, DENV-4 nonstructural protein 1 (NS1), …
Test: SPR
Conditions: both partners purified
Remark: another data set of the same source

Point of comparison: B3, Kd 6.2 nM. Against it:
- B2 — within 1.5-fold, 7.1 nM
- B1 — 8.9-fold lower, 0.7 nM
- B6 — 10-fold lower, 0.6 nM
- B7 — 5.6-fold lower, 1.1 nM

Target: T8, DENV-3 nonstructural protein 1 (NS1), …
Test: SPR
Conditions: both partners purified
Remark: another data set of the same source

Point of comparison: B9, Kd 1.6 nM. Against it:
- B2 — 1.9-fold higher, 3.1 nM
- B3 — 16-fold higher, 25.1 nM
- B1 — within 1.5-fold, 1.7 nM
- B6 — 11-fold higher, 17.7 nM
- B7 — within 1.5-fold, 2.4 nM

Target: T4, DENV-1 nonstructural protein 1 (NS1), …
Test: SPR; sdAb immobilized
Conditions: not given

Point of comparison: B7, koff 0.000423 s⁻¹. Against it:
- B2 — within 1.5-fold, 0.000289 s⁻¹
- B3 — within 1.5-fold, 0.000318 s⁻¹
- B1 — 2-fold lower, 0.00021 s⁻¹
- B6 — 2.1-fold lower, 0.000206 s⁻¹

Target: T1, DENV-2 nonstructural protein 1 (NS1), …
Test: SPR; sdAb immobilized
Conditions: not given
Remark: another data set of the same source

Point of comparison: B2, koff 0.00034 s⁻¹. Against it:
- B3 — 4.3-fold lower, 7.99e-05 s⁻¹
- B1 — 2.2-fold lower, 0.000155 s⁻¹
- B6 — 1.9-fold lower, 0.000182 s⁻¹
- B7 — within 1.5-fold, 0.000435 s⁻¹

Each binder was assayed against T5, DENV-2 nonstructural protein 1 (NS1), … (assay: MagPlex (Luminex) bead assay, direct binding). Conditions: both partners purified.

B11: no binding.
